Results as given in patent publication US20230138930A1 (FUDAN UNIVERSITY, published 2023).

Experiments:
[1] = target: T1, human TF on cells (MDA-MB-231, BxPC-3 and other tumor cells with high TF expression) (human, UniProt P13726 33-295); assay: flow cytometry on MDA-MB-231 cells, antibody at 1 µg/mL
T1 construct: whole, on cells; Endogenous expression on tumor cell lines; also called cell surface TF

[2] = target: T1, human TF on cells (MDA-MB-231, BxPC-3 …); assay: flow cytometry on MDA-MB-231 cells, antibody at 10 µg/mL

Binder	MFI [1]	MFI [2]
TF-mAb-H42 (antibody, V domains shown) VH: QVQLVQSGAEVKKPGASVKVSCKASGYSFISYWMNWVRQAPGQGLEWIGMIYPADSETRLNQKFKDRATLTVDKSTSTAYMELSSLRSEDTAVYYCAREDYGSSDYWGQGTTVTVSS VL: DIQLTQSPSSLSASVGDRVTITCSASSSVSYMNWYQQKPGKSPKIWIYGISNLASGVPSRFSGSGSGTDFTLTISSLQPEDFATYYCQQKSSFPWTFGGGTKVEIK	2970 MFI	3350 MFI
TF-mAb-H47 (antibody, V domains shown) VH: QVQLVQSGAEVKKPGASVKVSCKASGYSFISYWMNWVRQAPGQGLEWIGMIYPADSETRLNQKFKDRATLTVDKSTSTAYMELSSLRSEDTAVYYCAREDYGSSDYWGQGTTVTVSS VL: EIVLTQSPDFQSVTPKEKVTITCSASSSVSYMNWYQQKPDQSPKIWIYGISNLASGVPSRFSGSGSGTDFTLTINSLEAEDAATYYCQQKSSFPWTFGGGTKVEIK	3000 MFI	3150 MFI
TF-mAb-H48 (antibody, V domains shown) VH: QVQLVQSGSELKKPGASVKVSCKASGYSFISYWMNWVRQAPGQGLEWIGMIYPADSETRLNQKFKDRAVLSVDKSVSTAYLQICSLKAEDTAVYYCAREDYGSSDYWGQGTTVTVSS VL: EIVLTQSPDFQSVTPKEKVTITCSASSSVSYMNWYQQKPDQSPKIWIYGISNLASGVPSRFSGSGSGTDFTLTINSLEAEDAATYYCQQKSSFPWTFGGGTKVEIK	2610 MFI	2900 MFI
TF-mAb-H43 (antibody, V domains shown) VH: QVQLVQSGSELKKPGASVKVSCKASGYSFISYWMNWVRQAPGQGLEWIGMIYPADSETRLNQKFKDRAVLSVDKSVSTAYLQICSLKAEDTAVYYCAREDYGSSDYWGQGTTVTVSS VL: DIQLTQSPSSLSASVGDRVTITCSASSSVSYMNWYQQKPGKSPKIWIYGISNLASGVPSRFSGSGSGTDFTLTISSLQPEDFATYYCQQKSSFPWTFGGGTKVEIK	2820 MFI	3300 MFI
TF-mAb-Ch (antibody, V domains shown, Variable regions of TF-mAb-SC1 cloned onto human IgG1 heavy chain constant region and human kappa constant region; also called human-mouse chimeric antibody) VH: QVQLQQPGAELVRPGASVKLSCKASGYSFISYWMNWVKQRPGQGLEWIGMIYPADSETRLNQKFKDKATLTVDKSSSTAYMQLSSPTSEDSAVYYCAREDYGSSDYWGQGTTLTVSS VL: EILLTQSPAIIAASPGEKVTITCSASSSVSYMNWYLQKPGSSPKIWIYGISNLASGVPARFSGSGSGTSFSFTINSMETEDVATYYCQQKSSFPWTFGGGTKLEIK	3370 MFI	3540 MFI
TF-mAb-H30 (antibody, V domains shown) VH: EVQLVQSGAEVKKPGESLKISCKGSGYSFTSYWMNWVRQMPGKGLEWMGMIYPADSETRLNQKFKDKATLSVDKSISTAYLQWSSLKASDTAMYYCAREDYGSSDYWGQGTTVTVSS VL: EIVLTQSPATLSLSPGERATLSCSASSSVSYMNWYQQKPGQAPRIWIYGISNLASGIPARFSGSGSGTDFTLTISSLEPEDFAVYYCQQKSSFPWTFGGGTKVEIK	2930 MFI	3240 MFI
TF-mAb-H45 (antibody, V domains shown) VH: EVQLVQSGAEVKKPGESLKISCKGSGYSFTSYWMNWVRQMPGKGLEWMGMIYPADSETRLNQKFKDKATLSVDKSISTAYLQWSSLKASDTAMYYCAREDYGSSDYWGQGTTVTVSS VL: EIVLTQSPDFQSVTPKEKVTITCSASSSVSYMNWYQQKPDQSPKIWIYGISNLASGVPSRFSGSGSGTDFTLTINSLEAEDAATYYCQQKSSFPWTFGGGTKVEIK	3100 MFI	3480 MFI
TF-mAb-H40 (antibody, V domains shown) VH: EVQLVQSGAEVKKPGESLKISCKGSGYSFTSYWMNWVRQMPGKGLEWMGMIYPADSETRLNQKFKDKATLSVDKSISTAYLQWSSLKASDTAMYYCAREDYGSSDYWGQGTTVTVSS VL: DIQLTQSPSSLSASVGDRVTITCSASSSVSYMNWYQQKPGKSPKIWIYGISNLASGVPSRFSGSGSGTDFTLTISSLQPEDFATYYCQQKSSFPWTFGGGTKVEIK	3180 MFI	3310 MFI
TF-mAb-H38 (antibody, V domains shown) VH: QVQLVQSGSELKKPGASVKVSCKASGYSFISYWMNWVRQAPGQGLEWIGMIYPADSETRLNQKFKDRAVLSVDKSVSTAYLQICSLKAEDTAVYYCAREDYGSSDYWGQGTTVTVSS VL: EIVLTQSPATLSLSPGERATLSCSASSSVSYMNWYQQKPGQSPRIWIYGISNLASGVPARFSGSGSGTDFTLTISSLEPEDFAVYYCQQKSSFPWTFGGGTKVEIK	2870 MFI	3150 MFI
TF-mAb-H32 (antibody, V domains shown) VH: QVQLVQSGAEVKKPGASVKVSCKASGYSFISYWMNWVRQAPGQGLEWIGMIYPADSETRLNQKFKDRATLTVDKSTSTAYMELSSLRSEDTAVYYCAREDYGSSDYWGQGTTVTVSS VL: EIVLTQSPATLSLSPGERATLSCSASSSVSYMNWYQQKPGQAPRIWIYGISNLASGIPARFSGSGSGTDFTLTISSLEPEDFAVYYCQQKSSFPWTFGGGTKVEIK	2400 MFI	3010 MFI
TF-mAb-H39 (antibody, V domains shown) VH: EVQLVQSGAEVKKPGESLKISCKGSGYSFTSYWMNWVRQMPGKGLEWMGMIYPADSETRLNQKFKDQATLSVDKSISTAYLQWSSLKASDTAMYYCAREDYGSSDYWGQGTTVTVSS VL: DIQLTQSPSSLSASVGDRVTITCSASSSVSYMNWYQQKPGKSPKIWIYGISNLASGVPSRFSGSGSGTDFTLTISSLQPEDFATYYCQQKSSFPWTFGGGTKVEIK	3180 MFI	3380 MFI
TF-mAb-H37 (antibody, V domains shown) VH: QVQLVQSGAEVKKPGASVKVSCKASGYSFISYWMNWVRQAPGQGLEWIGMIYPADSETRLNQKFKDRATLTVDKSTSTAYMELSSLRSEDTAVYYCAREDYGSSDYWGQGTTVTVSS VL: EIVLTQSPATLSLSPGERATLSCSASSSVSYMNWYQQKPGQSPRIWIYGISNLASGVPARFSGSGSGTDFTLTISSLEPEDFAVYYCQQKSSFPWTFGGGTKVEIK	2460 MFI	2990 MFI
TF-mAb-H41 (antibody, V domains shown) VH: EVQLVQSGAEVKKPGESLKISCKGSGYSFTSYWMNWVKQMPGKGLEWMGMIYPADSETRLNQKFKDKATLSVDKSISTAYLQWSSLKASDTAMYYCAREDYGSSDYWGQGTTVTVSS VL: DIQLTQSPSSLSASVGDRVTITCSASSSVSYMNWYQQKPGKSPKIWIYGISNLASGVPSRFSGSGSGTDFTLTISSLQPEDFATYYCQQKSSFPWTFGGGTKVEIK	3000 MFI	3610 MFI
TF-mAb-H34 (antibody, V domains shown) VH: EVQLVQSGAEVKKPGESLKISCKGSGYSFTSYWMNWVRQMPGKGLEWMGMIYPADSETRLNQKFKDQATLSVDKSISTAYLQWSSLKASDTAMYYCAREDYGSSDYWGQGTTVTVSS VL: EIVLTQSPATLSLSPGERATLSCSASSSVSYMNWYQQKPGQSPRIWIYGISNLASGVPARFSGSGSGTDFTLTISSLEPEDFAVYYCQQKSSFPWTFGGGTKVEIK	2460 MFI	3270 MFI
TF-mAb-H35 (antibody, V domains shown) VH: EVQLVQSGAEVKKPGESLKISCKGSGYSFTSYWMNWVRQMPGKGLEWMGMIYPADSETRLNQKFKDKATLSVDKSISTAYLQWSSLKASDTAMYYCAREDYGSSDYWGQGTTVTVSS VL: EIVLTQSPATLSLSPGERATLSCSASSSVSYMNWYQQKPGQSPRIWIYGISNLASGVPARFSGSGSGTDFTLTISSLEPEDFAVYYCQQKSSFPWTFGGGTKVEIK	2930 MFI	3020 MFI
TF-mAb-H33 (antibody, V domains shown) VH: QVQLVQSGSELKKPGASVKVSCKASGYSFISYWMNWVRQAPGQGLEWIGMIYPADSETRLNQKFKDRAVLSVDKSVSTAYLQICSLKAEDTAVYYCAREDYGSSDYWGQGTTVTVSS VL: EIVLTQSPATLSLSPGERATLSCSASSSVSYMNWYQQKPGQAPRIWIYGISNLASGIPARFSGSGSGTDFTLTISSLEPEDFAVYYCQQKSSFPWTFGGGTKVEIK	2420 MFI	2840 MFI
TF-mAb-H29 (antibody, V domains shown) VH: EVQLVQSGAEVKKPGESLKISCKGSGYSFTSYWMNWVRQMPGKGLEWMGMIYPADSETRLNQKFKDQATLSVDKSISTAYLQWSSLKASDTAMYYCAREDYGSSDYWGQGTTVTVSS VL: EIVLTQSPATLSLSPGERATLSCSASSSVSYMNWYQQKPGQAPRIWIYGISNLASGIPARFSGSGSGTDFTLTISSLEPEDFAVYYCQQKSSFPWTFGGGTKVEIK	2960 MFI	3580 MFI
TF-mAb-H36 (antibody, V domains shown) VH: EVQLVQSGAEVKKPGESLKISCKGSGYSFTSYWMNWVKQMPGKGLEWMGMIYPADSETRLNQKFKDKATLSVDKSISTAYLQWSSLKASDTAMYYCAREDYGSSDYWGQGTTVTVSS VL: EIVLTQSPATLSLSPGERATLSCSASSSVSYMNWYQQKPGQSPRIWIYGISNLASGVPARFSGSGSGTDFTLTISSLEPEDFAVYYCQQKSSFPWTFGGGTKVEIK	3040 MFI	3090 MFI
TF-mAb-H44 (antibody, V domains shown) VH: EVQLVQSGAEVKKPGESLKISCKGSGYSFTSYWMNWVRQMPGKGLEWMGMIYPADSETRLNQKFKDQATLSVDKSISTAYLQWSSLKASDTAMYYCAREDYGSSDYWGQGTTVTVSS VL: EIVLTQSPDFQSVTPKEKVTITCSASSSVSYMNWYQQKPDQSPKIWIYGISNLASGVPSRFSGSGSGTDFTLTINSLEAEDAATYYCQQKSSFPWTFGGGTKVEIK	3200 MFI	3430 MFI
TF-mAb-H31 (antibody, V domains shown) VH: EVQLVQSGAEVKKPGESLKISCKGSGYSFTSYWMNWVKQMPGKGLEWMGMIYPADSETRLNQKFKDKATLSVDKSISTAYLQWSSLKASDTAMYYCAREDYGSSDYWGQGTTVTVSS VL: EIVLTQSPATLSLSPGERATLSCSASSSVSYMNWYQQKPGQAPRIWIYGISNLASGIPARFSGSGSGTDFTLTISSLEPEDFAVYYCQQKSSFPWTFGGGTKVEIK	3080 MFI	3470 MFI
TF-mAb-H46 (antibody, V domains shown) VH: EVQLVQSGAEVKKPGESLKISCKGSGYSFTSYWMNWVKQMPGKGLEWMGMIYPADSETRLNQKFKDKATLSVDKSISTAYLQWSSLKASDTAMYYCAREDYGSSDYWGQGTTVTVSS VL: EIVLTQSPDFQSVTPKEKVTITCSASSSVSYMNWYQQKPDQSPKIWIYGISNLASGVPSRFSGSGSGTDFTLTINSLEAEDAATYYCQQKSSFPWTFGGGTKVEIK	3120 MFI	3410 MFI
